The numbers were not newly measured in paper PMC12172581, which cites them from elsewhere.

One may read the pKa as the pH at which an ionisable group is half protonated.

The series deals with Nterm1 (UniProt position 672, SEVKMDAEFRH). The series can be described thus: potentiometry. As to conditions: apo (metal-free) peptide.

Consider “Amyloid-beta peptide (Abeta1-40, as tabulated) (Homo sapiens)”, for which the pKa is 8.0.
